In US20210340238A1, “TGFß1 INHIBITORS AND USE THEREOF” (Scholar Rock, Inc., priority 2018, published 2021):

Legend:
[1] = tested on: TGFβ downstream tonic signaling; assay: TGFβ downstream tonic signaling in non-diseased rat BAL; type: in vivo
[2] = rat, in vivo
Description: Animals receiving pan-TGFβ antibody were dosed once intravenously (at day 1) at a volume of 10 mL/kg and sacrificed at day 8 and necropsies performed. […] Animals receiving LY2109761 were dosed by oral gavage once daily for five or seven days. Animals were sacrificed and necropsies performed.

[3] = in vivo, cited from earlier work

Row | Molecule | Effect on TGFβ downstream tonic signaling [1] | Bone findings [2] | Exposure: DN Cmax ([3]; human) | Exposure: Half-life ([3]; human) | Previously reported adverse events in human patients (CTCAE grade) [3]
1 | c1ccc(-c2nn3c(c2-c2ccnc4cc(OCCN5CCOCC5)ccc24)CCC3)nc1 [LY2109761] | inhibit TGFβ downstream tonic signaling in non-diseased rat BAL | macroscopic abnormally shaped sternum and microscopic increased thickness of the hypertrophic zone in the endplate of the sternum and physis of the femur and tibia |  |  | 
2 | GC1008: human analog of 1D11, pan-TGFβ antibody Fresolimumab (GC1008) |  |  | DN Cmax~(350 ng/mL)mg (ng/mL)mg | Half-life: 21.7 d | leukocytosis (grade 3), fatigue (grade 3), hypoxia (grade 3), asystole (grade 5), leukopenia (grade 1), recurrent, transient, tender erythematous, nodular skin lesions, suppurative dermatitis, and herpes zoster
